These results are taken from EP1706427B1 (Crucell Holland B.V., dated 2011).

For one experiment, the target named is T1, murine CD1a (mouse).
T1 construct: whole, on cells; no mouse CD1a entry is known to me; also called mouse thymocytes
Description: flow cytometry on mouse thymocytes, Kolmogorov-Smirnov D-value. For orientation: A flow cytometer gives signals particle by particle.

For another experiment, the target named is T2, murine CD1d (mouse, UniProt P11609 22-336).
T2 construct: whole, on cells; also called mouse thymocytes
T2 sequence (looked up): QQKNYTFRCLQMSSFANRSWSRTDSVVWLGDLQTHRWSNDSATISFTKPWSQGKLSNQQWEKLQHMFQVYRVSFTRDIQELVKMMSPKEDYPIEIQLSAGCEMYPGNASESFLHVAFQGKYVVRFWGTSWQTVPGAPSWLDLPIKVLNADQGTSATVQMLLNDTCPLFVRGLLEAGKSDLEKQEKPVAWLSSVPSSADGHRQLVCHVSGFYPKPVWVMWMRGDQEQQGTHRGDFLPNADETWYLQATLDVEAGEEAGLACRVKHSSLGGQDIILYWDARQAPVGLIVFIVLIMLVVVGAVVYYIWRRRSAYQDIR
Described as above.

B1: human anti-human CD1a monoclonal antibody CR2117 (antibody, human IgG1, kappa, V domains shown)
VH: EVQLVESGGGLVHPGGSLRLSCAGSGFTFSSYAMHWVRQAPGKGLEWVSAIGTGGGTYYADSVKGRFTISRDNAKNSLYLQMNSLRAEDTAVYYCARSTPWFSFDYWGQGTLVTVSS
VL: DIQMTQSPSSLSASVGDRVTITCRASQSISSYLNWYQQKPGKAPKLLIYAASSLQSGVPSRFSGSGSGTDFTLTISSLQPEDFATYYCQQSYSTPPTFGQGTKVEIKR
notes: Human IgG1 kappa made in 293T cells; Used unlabelled and biotinylated; also called 02-117
For B1, the D-value with murine CD1a and with murine CD1d was 0 in each case.

B2: human anti-human CD1a monoclonal antibody CR2118 (antibody, human IgG1, kappa, V domains shown)
VH: EVQLVESGGGLVHPGGSLRLSCAGSGFTFSSYAMHWVRQAPGKGLEWVSAISTGGGTYYADSVKGRFTISRDNAKNSLYLQMNSLRAEDTAVYYCARSAWWLSFDSWGQGTLVTVSS
VL: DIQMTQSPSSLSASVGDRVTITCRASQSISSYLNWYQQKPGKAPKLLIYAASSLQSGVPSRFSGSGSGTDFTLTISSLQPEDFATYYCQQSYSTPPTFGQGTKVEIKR
notes: Human IgG1 kappa made in 293T cells; Used unlabelled and biotinylated; also called 02-118
As to B2, the D-value with murine CD1a and with murine CD1d was 0 each time.

B3: human anti-human CD1a monoclonal antibody CR2113 (antibody, human IgG1, kappa, V domains shown)
VH: QVQLQESGAGLLKPSETLSLTCAVYGGSFSGYYWSWIRQPPGKGLEWIGYIYYSGSTNYNPSLKSRVTISVDTSKNQFSLKLSSVTAADTAVYYCAKAPYMMYFDSWGQGTLVTVSS
VL: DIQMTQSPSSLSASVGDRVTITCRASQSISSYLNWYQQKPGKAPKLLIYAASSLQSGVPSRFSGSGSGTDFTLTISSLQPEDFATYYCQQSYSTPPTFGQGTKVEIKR
notes: Human IgG1 kappa made in 293T cells, purified over protein A and size exclusion; Used unlabelled and biotinylated; also called 02-113
As to B3, the D-value in the experiment with murine CD1a and with murine CD1d was 0 in each case.

B4: human anti-human CD1a monoclonal antibody CR2114 (antibody, human IgG1, kappa, V domains shown)
VH: EVQLVESGGGLVQPGGSLRLSCAASGFTFSSYSMNWVRQAPGKGLEWVSYISSSSSTIYYADSVKGRFTISRDNAKNSLYLQMNSLRDEDTAVYYCAKETWWQSFDYWGQGTLVTVSS
VL: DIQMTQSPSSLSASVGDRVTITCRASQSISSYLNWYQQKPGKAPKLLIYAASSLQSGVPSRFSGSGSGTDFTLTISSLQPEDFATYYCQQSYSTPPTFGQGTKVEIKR
notes: Human IgG1 kappa made in 293T cells; Used unlabelled and biotinylated; also called 02-114
As to B4, the D-value with murine CD1a and in the experiment with murine CD1d was 0 each time.
